US20120090043A1, “TARGETS FOR RETROVIRUS ASSOCIATED DISEASES” (priority 2009, published 2012)

Columns and labels:
[1] = tested on: HIV-1 LTR promoter transactivation by HIV-1 Tat; assay: Transactivation assay, HIV-1 LTR luciferase reporter with HIV-1 Tat; format: cell-based; conditions: HEK293 cells co-transfected with pHIV1LTR-Luc, HIV-1 Tat and the human ORF; relative luciferase activity 24 h post-transfection; positive if >=2 or <=0.5 and p<0.05
In short: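 HEK293 cells (10^4) were calcium-phosphate co-transfected with the HIV-1 LTR-luciferase reporter plus HIV-1 Tat, or the HTLV-1 LTR-luciferase reporter plus HTLV-1 Tax, each with a human ORF expression plasmid. A hit required relative activity ≥2 or ≤0.5 with paired t-test p<0.05.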

[2] = tested on: HTLV-1 LTR promoter transactivation by HTLV-1 Tax; assay: Transactivation assay, HTLV-1 LTR luciferase reporter with HTLV-1 Tax; format: cell-based; conditions: HEK293 cells co-transfected with pHTLV1LTR-Luc, HTLV-1 Tax and the human ORF; relative luciferase activity 24 h post-transfection; positive if >=2 or <=0.5 and p<0.05

| Molecule | HIV_LTR transactiv. [1] | HTLV_LTR transactiv. [2] |
| --- | --- | --- |
| KRT8: human host interactor protein, Gene ID 3856, expressed from transfected ORF vector (protein) MSIRVTQKSYKVSTSGPRAFSSRSYTSGPGSRISSSSFSRVGSSNFRGGLGGGYGGASGMGGITAVTVNQSLLSPLVLEVDPNIQAVRTQEKEQIKTLNNKFASFIDKVRFLEQQNKMLETKWSLLQQQKTARSNMDNMFESYINNLRRQLETLGQEKLKLEAELGNMQGLVEDFKNKYEDEINKRTEMENEFVLIKKDVDEAYMNKVELESRLEGLTDEINFLRQLYEEEIRELQSQISDTSVVLSMDNSRSLDMDSIIAEVKAQYEDIANRSRAEAESMYQIKYEELQSLAGKHGDDLRRTKTEISEMNRNISRLQAEIEGLKGQRASLEAAIADAEQRGELAIKDANAKLSELEAALQRAKQDMARQLREYQELMNVKLALDIEIATYRKLLEGEESRLESGMQNMSIHTKTTSGYAGGLSSAYGGLTSPGLSYSLGSSFGSGAGSSSFSRTSSSRAVVVKKIETRDGKLVSESSDVLPK | 0.19 fold change | 0.24 fold change |
| DLX2: human host interactor protein, Gene ID 1746, expressed from transfected ORF vector (protein) MTGVFDSLVADMHSTQIAASSTYHQHQQPPSGGGAGPGGNSSSSSSLHKPQESPTLPVSTATDSSYYTNQQHPAGGGGGGGSPYAHMGSYQYQASGLNNVPYSAKSSYDLGYTAAYTSYAPYGTSSSPANNEPEKEDLEPEIRIVNGKPKKVRKPRTIYSSFQLAALQRRFQKTQYLALPERAELAASLGLTQTQVKIWFQNRRSKFKKMWKSGEIPSEQHPGASASPPCASPPVSAPASWDFGVPQRMAGGGGPGSGGSGAGSSGSSPSSAASAFLGNYPWYHQTSGSASHLQATAPLLHPTQTPQPHHHHHHHGGGGAPVSAGTIF | 0.24 fold change | 0.30 fold change |
| LNX2: human host interactor protein, Gene ID 222484, expressed from transfected ORF vector (protein) MGTTSDEMVSVEQTSSSSLNPLCFECGQQHWTRENHLYNYQNEVDDDLVCHICLQPLLQPLDTPCGHTFCYKCLRNFLQEKDFCPLDRKRLHFKLCKKSSILVHKLLDKLLVLCPFSSVCKDVMQRCDLEAHLKNRCPGASHRRVALERRKTSRTQAEIENENGPTLLDPAGTLSPEADCLGTGAVPVERHLTSASLSTWSEEPGLDNPAFEESAGADTTQQPLSLPEGEITTIEIHRSNPYIQLGISIVGGNETPLINIVIQEVYRDGVIARDGRLLAGDQILQVNNYNISNVSHNYARAVLSQPCNTLHLTVLRERRFGNRAHNHSDSNSPREEIFQVALHKRDSGEQLGIKLVRRTDEPGVFILDLLEGGLAAQDGRLSSNDRVLAINGHDLKYGTPELAAQIIQASGERVNLTIARPGKPQPGNTIREAGNHSSSSQHHTPPPYYSRPSSHKDLTQCVTCQEKHITVKKEPHESLGMTVAGGRGSKSGELPIFVTSVPPHGCLARDGRIKRGDVLLNINGIDLTNLSHSEAVAMLKASAASPAVALKALEVQIVEEATQNAEEQPSTFSENEYDASWSPSWVMWLGLPSTLHSCHDIVLRRSYLGSWGFSIVGGYEENHTNQPFFIKTIVLGTPAYYDGRLKCGDMIVAVNGLSTVGMSHSALVPMLKEQRNKVTLTVICWPGSLV | 0.26 fold change | 0.28 fold change |
| FANCG: human host interactor protein, Gene ID 2189, expressed from transfected ORF vector (protein) MSRQTTSVGSSCLDLWREKNDRLVRQAKVAQNSGLTLRRQQLAQDALEGLRGLLHSLQGLPAAVPVLPLELTVTCNFIILRASLAQGFTEDQAQDIQRSLERVLETQEQQGPRLEQGLRELWDSVLRASCLLPELLSALHRLVGLQAALWLSADRLGDLALLLETLNGSQSGASKDLLLLLKTWSPPAEELDAPLTLQDAQGLKDVLLTAFAYRQGLQELITGNPDKALSSLHEAASGLCPRPVLVQVYTALGSCHRKMGNPQRALLYLVAALKEGSAWGPPLLEASRLYQQLGDTTAELESLELLVEALNVPCSSKAPQFLIEVELLLPPPDLASPLHCGTQSQTKHILASRCLQTGRAGDAAEHYLDLLALLLDSSEPRFSPPPSPPGPCMPEVFLEAAVALIQAGRAQDALTLCEELLSRTSSLLPKMSRLWEDARKGTKELPYCPLWVSATHLLQGQAWVQLGAQKVAISEFSRCLELLFRATPEEKEQGAAFNCEQGCKSDAALQQLRAAALISRGLEWVASGQDTKALQDFLLSVQMCPGNRDTYFHLLQTLKRLDRRDEATALWWRLEAQTKGSHEDALWSLPLYLESYLSWIRPSDRDAFLEEFRTSLPKSCDL | 0.27 fold change | 3.48 fold change |
| GCC1: human host interactor protein, Gene ID 79571, expressed from transfected ORF vector (protein) MEKFGMNFGGGPSKKDLLETIETQKKQLLQYQARLKDVVRAYKSLLKEKEALEASIKVLSVSHEADVGLAGVQLPGLTFPDSVDDRCSTHSEDSTGTATSLDTAASLTSTKGEFGVEDDRPARGPPPPKSEEASWSESGVSSSSGDGPFAGGEVDKRLHQLKTQLATLTSSLATVTQEKSRMEASYLADKKKMKQDLEDASNKAEEERARLEGELKGLQEQIAETKARLITQQHDRAQEQSDHALMLRELQKLLQEERTQRQDLELRLEETREALAGRAYAAEQMEGFELQTKQLTREVEELKSELQAIRDEKNQPDPRLQELQEEAARLKSHFQAQLQQEMRKTALAEDQLRQQSQVEEQRVAALENQISEVSELLGTYEKAKQKDQLAIQKLKERILQLDLENKTLALAASSRSPLDSHGEESSLDVNVLKDKMEKLKRLLQVAARKSQVTLDVEKLCDLEIMPSSEAADGEKATALYYQQELKQLKEEFERYKMRAQVVLKSKNTKDGNLGKELEAAQEQLAELKEKYISLRLSCEELEHQHQQEADDWKQELARLQQLHRQELERCQLDFRDRTLKLEEELHKQRDRALAVLTEKDLELEQLRSVALASGLPGRRSPVGGGGPGDPADTSSSDSLTQALQLAAANEPTFFLYAEQLARKEVEITSLRKQKHRLEVEVHQLQDRLLEEGERHREEVAALQSHIEKNIRDQSREGANLEYLKNIIYRFLTLPDSLGRQQTLTAILTILHFSPEEKQVIMRLPTSASWWPSGKR | 3.78 fold change | 0.29 fold change |
| C20orf141: human host interactor protein, Gene ID 128653, expressed from transfected ORF vector (protein) MTRLCLPRPEAREDPIPVPPRGLGAGEGSGSPVRPPVSTWGPSWAQLLDSVLWLGALGLTIQAVFSTTGPALLLLLVSFLTFDLLHRPAGHTLPQRKLLTRGQSQGAGEGPGQQEALLLQMGTVSGQLSLQDALLLLLMGLGPLLRACGMPLTLLGLAFCLHPWA | 0.35 fold change | 2.80 fold change |
